For eight molecules, Kd and response (Absorbance (450nm)) results are on record in PMC12527946.

The target of this experiment is VLDLR(28–797)Δ(751–779)-C-tag (VLDLR ectodomain), P98155-2. The experiment is described as follows: ELISA. To be noted: chain shown with the change, VLDLR-ed coated on microtiter plates, background binding to BSA subtracted; for Kd: parent: 79.6 nM; for response (Absorbance (450nm)): fitted binding curve read at Clu 1.0 µM, parent: est. 0.48, read off a plot. In general terms: An ELISA detects its analyte on a solid surface through an enzyme-linked reagent.

B1: wild-type human clusterin (WT Clu), P10909 K123Q; R127Q; R130Q; R138Q; R282Q; R286Q; R289Q (protein)
chain: MMKTLLLFVGLLLTWESGQVLGDQTVSDNELQEMSNQGSKYVNKEIQNAVNGVKQIKTLIEKTNEERKTLLSNLEEAKKKKEDALNETRESETKLKELPGVCNETMMALWEECKPCLKQTCMQFYAQVCQSGSGLVGQQLEEFLNQSSPFYFWMNGDRIDSLLENDRQQTHMLDVMQDHFSRASSIIDELFQDRFFTREPQDTYHYLPFSLPHRRPHFFFPKSRIVRSLMPFSPYEPLNFHAMFQPFLEMIHEAQQAMDIHFHSPAFQHPPTEFIREGDDDQTVCQEIQHNSTGCLRMKDQCDKCREILSVDCSTNNPSQAKLRRELDESLQVAERLTRKYNELLKSYQWKMLNTSSLLEQLNEQFNWVSRLANLTQGEDQYYLRVTTVASHTSDSDVPSGVTEVVVKLFDSDPITVTVPVEVSRKNPKFMETVAEKALQEYRKKHREE
In the case of B1, the Kd (usually the concentration at which binding is half-saturated) (Clu 0-2.0 µM) was found to be 1180 nM.

B2: wild-type human clusterin (WT Clu), P10909 S161R (protein)
chain 1: DQTVSDNELQEMSNQGSKYVNKEIQNAVNGVKQIKTLIEKTNEERKTLLSNLEEAKKKKEDALNETRESETKLKELPGVCNETMMALWEECKPCLKQTCMKFYARVCRSGSGLVGRQLEEFLNQSSPFYFWMNGDRIDRLLENDRQQTHMLDVMQDHFSRASSIIDELFQDRFFTREPQDTYHYLPFSLPHRRPHFFFPKSRIVR
chain 2: SLMPFSPYEPLNFHAMFQPFLEMIHEAQQAMDIHFHSPAFQHPPTEFIREGDDDRTVCREIRHNSTGCLRMKDQCDKCREILSVDCSTNNPSQAKLRRELDESLQVAERLTRKYNELLKSYQWKMLNTSSLLEQLNEQFNWVSRLANLTQGEDQYYLRVTTVASHTSDSDVPSGVTEVVVKLFDSDPITVTVPVEVSRKNPKFMETVAEKALQEYRKKHREE
Regarding B2, the dissociation constant Kd (Clu 0-1.0 µM) turned out to be 376 nM.

B3: wild-type human clusterin (WT Clu), P10909 Y204S; Y206S; L207S; F209S; L211S; F218S; F219S; F220S (protein)
chain: MMKTLLLFVGLLLTWESGQVLGDQTVSDNELQEMSNQGSKYVNKEIQNAVNGVKQIKTLIEKTNEERKTLLSNLEEAKKKKEDALNETRESETKLKELPGVCNETMMALWEECKPCLKQTCMKFYARVCRSGSGLVGRQLEEFLNQSSPFYFWMNGDRIDSLLENDRQQTHMLDVMQDHFSRASSIIDELFQDRFFTREPQDTSHSSPSSSPHRRPHSSSPKSRIVRSLMPFSPYEPLNFHAMFQPFLEMIHEAQQAMDIHFHSPAFQHPPTEFIREGDDDRTVCREIRHNSTGCLRMKDQCDKCREILSVDCSTNNPSQAKLRRELDESLQVAERLTRKYNELLKSYQWKMLNTSSLLEQLNEQFNWVSRLANLTQGEDQYYLRVTTVASHTSDSDVPSGVTEVVVKLFDSDPITVTVPVEVSRKNPKFMETVAEKALQEYRKKHREE
For the molecule B3, the response (Absorbance (450nm)) was found to be 0.16.

B4: wild-type human clusterin (WT Clu), P10909 L229S; M230S; F232S; Y235S (protein)
chain: MMKTLLLFVGLLLTWESGQVLGDQTVSDNELQEMSNQGSKYVNKEIQNAVNGVKQIKTLIEKTNEERKTLLSNLEEAKKKKEDALNETRESETKLKELPGVCNETMMALWEECKPCLKQTCMKFYARVCRSGSGLVGRQLEEFLNQSSPFYFWMNGDRIDSLLENDRQQTHMLDVMQDHFSRASSIIDELFQDRFFTREPQDTYHYLPFSLPHRRPHFFFPKSRIVRSSSPSSPSEPLNFHAMFQPFLEMIHEAQQAMDIHFHSPAFQHPPTEFIREGDDDRTVCREIRHNSTGCLRMKDQCDKCREILSVDCSTNNPSQAKLRRELDESLQVAERLTRKYNELLKSYQWKMLNTSSLLEQLNEQFNWVSRLANLTQGEDQYYLRVTTVASHTSDSDVPSGVTEVVVKLFDSDPITVTVPVEVSRKNPKFMETVAEKALQEYRKKHREE
Regarding B4, the Kd (Clu 0-2.0 µM) was 989 nM.

B5: wild-type human clusterin (WT Clu), P10909 A108E; L109S; E112K; P115Q; K304A; E307H (protein)
chain: MMKTLLLFVGLLLTWESGQVLGDQTVSDNELQEMSNQGSKYVNKEIQNAVNGVKQIKTLIEKTNEERKTLLSNLEEAKKKKEDALNETRESETKLKELPGVCNETMMESWEKCKQCLKQTCMKFYARVCRSGSGLVGRQLEEFLNQSSPFYFWMNGDRIDSLLENDRQQTHMLDVMQDHFSRASSIIDELFQDRFFTREPQDTYHYLPFSLPHRRPHFFFPKSRIVRSLMPFSPYEPLNFHAMFQPFLEMIHEAQQAMDIHFHSPAFQHPPTEFIREGDDDRTVCREIRHNSTGCLRMKDQCDACRHILSVDCSTNNPSQAKLRRELDESLQVAERLTRKYNELLKSYQWKMLNTSSLLEQLNEQFNWVSRLANLTQGEDQYYLRVTTVASHTSDSDVPSGVTEVVVKLFDSDPITVTVPVEVSRKNPKFMETVAEKALQEYRKKHREE
Consider B5, for which the Kd (Clu 0-1.0 µM) is 137 nM.

B6: wild-type human clusterin (WT Clu), P10909 V369K; A373T; T376K (protein)
chain: MMKTLLLFVGLLLTWESGQVLGDQTVSDNELQEMSNQGSKYVNKEIQNAVNGVKQIKTLIEKTNEERKTLLSNLEEAKKKKEDALNETRESETKLKELPGVCNETMMALWEECKPCLKQTCMKFYARVCRSGSGLVGRQLEEFLNQSSPFYFWMNGDRIDSLLENDRQQTHMLDVMQDHFSRASSIIDELFQDRFFTREPQDTYHYLPFSLPHRRPHFFFPKSRIVRSLMPFSPYEPLNFHAMFQPFLEMIHEAQQAMDIHFHSPAFQHPPTEFIREGDDDRTVCREIRHNSTGCLRMKDQCDKCREILSVDCSTNNPSQAKLRRELDESLQVAERLTRKYNELLKSYQWKMLNTSSLLEQLNEQFNWKSRLTNLKQGEDQYYLRVTTVASHTSDSDVPSGVTEVVVKLFDSDPITVTVPVEVSRKNPKFMETVAEKALQEYRKKHREE
For B6, the Kd (Clu 0-1.0 µM) came to 109 nM.

B7: wild-type human clusterin (WT Clu), P10909 Y125F; G132E; L135K; R138E; Q139A; E142S (protein)
chain: MMKTLLLFVGLLLTWESGQVLGDQTVSDNELQEMSNQGSKYVNKEIQNAVNGVKQIKTLIEKTNEERKTLLSNLEEAKKKKEDALNETRESETKLKELPGVCNETMMALWEECKPCLKQTCMKFFARVCRSESGKVGEALESFLNQSSPFYFWMNGDRIDSLLENDRQQTHMLDVMQDHFSRASSIIDELFQDRFFTREPQDTYHYLPFSLPHRRPHFFFPKSRIVRSLMPFSPYEPLNFHAMFQPFLEMIHEAQQAMDIHFHSPAFQHPPTEFIREGDDDRTVCREIRHNSTGCLRMKDQCDKCREILSVDCSTNNPSQAKLRRELDESLQVAERLTRKYNELLKSYQWKMLNTSSLLEQLNEQFNWVSRLANLTQGEDQYYLRVTTVASHTSDSDVPSGVTEVVVKLFDSDPITVTVPVEVSRKNPKFMETVAEKALQEYRKKHREE
With B7, the equilibrium dissociation constant (Kd) (Clu 0-2.0 µM) is 1190 nM.

B8: wild-type human clusterin (WT Clu), P10909 Y204S; Y206S; L207S; F209S; L211S; F218S; F219S; F220S; L229S; M230S; F232S; Y235S (protein)
chain: MMKTLLLFVGLLLTWESGQVLGDQTVSDNELQEMSNQGSKYVNKEIQNAVNGVKQIKTLIEKTNEERKTLLSNLEEAKKKKEDALNETRESETKLKELPGVCNETMMALWEECKPCLKQTCMKFYARVCRSGSGLVGRQLEEFLNQSSPFYFWMNGDRIDSLLENDRQQTHMLDVMQDHFSRASSIIDELFQDRFFTREPQDTSHSSPSSSPHRRPHSSSPKSRIVRSSSPSSPSEPLNFHAMFQPFLEMIHEAQQAMDIHFHSPAFQHPPTEFIREGDDDRTVCREIRHNSTGCLRMKDQCDKCREILSVDCSTNNPSQAKLRRELDESLQVAERLTRKYNELLKSYQWKMLNTSSLLEQLNEQFNWVSRLANLTQGEDQYYLRVTTVASHTSDSDVPSGVTEVVVKLFDSDPITVTVPVEVSRKNPKFMETVAEKALQEYRKKHREE
With B8, the response (Absorbance (450nm)) amounted to 0.055.
